First the molecules themselves.
B1: Azoarcus group I ribozyme (parent)
chain: GUGCCUUGCGCCGGGAAACCACGCAAGGGAUGGUGUCAAAUUCGGCGAAACCUAAGCGCCCGCCCGGGCGUAUGGCAACGCCGAGCCAAGCUUCGGCGCCUGCGCCGAUGAAGGUGUAGAGACUAGACGGCACCCACCUAAGGCAAACGCUAUGGUGAAGGCAUAGUCCAGGGAGUGGCGAAAGUCACACAAACCGG

In this series the parent is B1. Description: reverse-splicing fitness (ratio to wild type); higher = more active; in vitro selection; Mg2+ level not given. In short, it runs like this:
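An in vitro group I ribozyme library with randomized positions was T7-transcribed and gel-purified. In triplicate, 10 pmol RNA in EPPS pH 7.5 was reacted with 50 pmoles of a 30-nt RNA substrate for 1 h at 37 °C across several added MgCl2 levels (1–48 mM), then stopped with EDTA. Products were reverse transcribed from a substrate-complementary primer, PCR-amplified and sequenced (HiSeq 4000). Fitness is a variant's read proportion after selection over that before, normalised to wild type.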
Take A111C A145G C150A C169G U176G: the reverse-splicing fitness worked out at 0.00728. As for A111C A145G C150A C169G U176A, the figure is 0.0153.

Turning to A111C A145C C150U C169A U176G, the reverse-splicing fitness is 0.00708. The same measure for A111C A145C C150U C169A U176C: 0.00847; for A111C A145C C150U C169A U176A: 0.0139; for A111C A145U C150U C169G U176C: 0.0215. As for A111C A145U C150U C169G U176A, the figure is 0.0147; as for A111C A145U C150U C169G U176G, 0.00734.

As for A111C A145U C150A C169A, the reverse-splicing fitness is 0.0106.

Consider A111C A145U C150A C169G, for which the reverse-splicing fitness worked out at 0.0113.

On to A111C A145U C150A C169U, for which the reverse-splicing fitness turned out to be 0.0179. The same measure for A111G A120C A145C C150U C169G U176C: 0.00855.

For the variant A111G A120C A145C C150U C169G U176G, the reverse-splicing fitness was determined as 0.0049.

For A111G A120C A145C C150U C169G U176A, the reverse-splicing fitness amounted to 0.0186. The same measure for A111C A145U C150A C169A U176A: 0.0138; for A111C A145U C150A C169A U176G: 0.00755. As for A111C A145U C150A C169A U176C, the figure is 0.0151; as for A111C A145C C150U, 0.554; as for A111C A145G C150G C169A U176A, 0.0119.

For the variant A111C A145G C150G C169A U176C, the reverse-splicing fitness was 0.011. As for A111C A145G C150G C169A U176G, the figure is 0.00766; as for A111C A145U C150A C169U U176A, 0.0176; as for A111C A145U C150A C169U U176C, 0.0154.

For A111C A145U C150A C169U U176G, the reverse-splicing fitness came to 0.00751. The same measure for A111G A120C A145G C150U C169A U176G: 0.00456; for A111G A120C A145G C150U C169A U176A: 0.016. Regarding A111G A120C A145G C150U C169A U176C, the reverse-splicing fitness was determined as 0.0149.

Turning to A111C A145U U176C, the reverse-splicing fitness is 0.398. Consider A111C A145U U176G, for which the reverse-splicing fitness is 0.276.

Consider A111C A145U U176A, for which the reverse-splicing fitness was 0.424. For A111C A145C C150U C169U U176C, the reverse-splicing fitness was determined as 0.0139. The same measure for A111C A145C C150U C169U U176A: 0.0174.

A111C A145C C150U C169U U176G: the reverse-splicing fitness was determined as 0.00818. For A111C A145U C169G U176C, the reverse-splicing fitness amounted to 0.0264. As for A111C A145U C169G U176G, the figure is 0.00719; as for A111C A145U C169G U176A, 0.0179.

For the variant A111C A145G C150G C169U U176G, the reverse-splicing fitness came to 0.00713. As for A111C A145G C150G C169U U176A, the figure is 0.0107; as for A111C A145G C150G C169U U176C, 0.0142. As for A111G A120C A145C C169A U176C, the figure is 0.00508. The same measure for A111G A120C A145C C169A U176G: 0.00335.

Take A111G A120C A145C C169A U176A: the reverse-splicing fitness worked out at 0.0086. The same measure for A111G A120C A145G C150U C169A: 0.0158; for A111G A120C A145G C150U C169G: 0.0142. On to A111G A120C A145C C150G, for which the reverse-splicing fitness came out at 0.136. As for A111G A120C A145C C150A, the figure is 0.0611. Consider A111G A120C A145C C150U, for which the reverse-splicing fitness came out at 0.298.

For the variant A111G A120C A145G C150G C169G U176G, the reverse-splicing fitness stood at 0.00503. The same measure for A111G A120C A145G C150G C169G U176C: 0.00529. The same measure for A111G A120C A145G C150G C169G U176A: 0.00741. The same measure for A111C A145G C169A U176A: 0.0288. As to A111C A145G C169A U176G, the reverse-splicing fitness is 0.0065. On to A111C A145G C169A U176C, for which the reverse-splicing fitness is 0.0307.

For A111G A120C A145C U176C, the reverse-splicing fitness came to 0.419.

Consider A111G A120C A145C U176G, for which the reverse-splicing fitness was 0.129. As to A111G A120C A145C U176A, the reverse-splicing fitness stood at 0.42. As for A111C C150A C169G U176A, the figure is 0.016; as for A111C C150A C169G U176C, 0.0246; as for A111C C150A C169G U176G, 0.00762. On to A111C A145U C150G C169G U176G, for which the reverse-splicing fitness is 0.0067. As for A111C A145U C150G C169G U176C, the figure is 0.00594; as for A111C A145U C150G C169G U176A, 0.00777. The same measure for A111G A120C A145C C150G C169G: 0.00666; for A111G A120C A145C C150G C169U: 0.0377; for A111G A120C A145C C150G C169A: 0.00873. As for A111C A145U C150A U176A, the figure is 0.114. Take A111C A145U C150A U176G: the reverse-splicing fitness amounted to 0.0589. As for A111C A145U C150A U176C, the figure is 0.166; as for A111C U176C, 0.38; as for A111C U176G, 0.202. The same measure for A111C U176A: 0.368; for A111G A120C: 0.806; for A111C C169A: 0.032. As for A111C C169G, the figure is 0.0716. A111C C169U: the reverse-splicing fitness is 0.128.

A111C A145C U176C: the reverse-splicing fitness was determined as 0.372. As for A111C A145C U176G, the figure is 0.217; as for A111C A145C U176A, 0.402. As for A111C C150G C169A U176C, the reverse-splicing fitness was found to be 0.0107. The same measure for A111C C150G C169A U176A: 0.00958; for A111C C150G C169A U176G: 0.00532.

As for A111G A120C A145G C150A C169U U176A, the reverse-splicing fitness was determined as 0.0243. As for A111G A120C A145G C150A C169U U176G, the figure is 0.00549.

A111G A120C A145G C150A C169U U176C: the reverse-splicing fitness is 0.0231.
